T1: cynomolgus PD-1-His (cynomolgus monkey)
T1 chain: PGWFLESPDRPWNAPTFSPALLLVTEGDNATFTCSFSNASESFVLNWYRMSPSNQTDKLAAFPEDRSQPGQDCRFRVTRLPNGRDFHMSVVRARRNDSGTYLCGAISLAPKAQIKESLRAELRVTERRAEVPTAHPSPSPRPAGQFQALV


Legend:
human PD-1-His [1] = target: T2, human PD-1-His (human, UniProt Q15116 25-167, limits assumed); assay: Octet (BLI); antibody captured on anti-human Fc (AHC) biosensors and dipped into multiple concentrations of human PD-1-His
T2 construct: Antigen of the Octet assays; not shown: His tag

human PD-1-His [2] = target: T2, human PD-1-His; assay: Octet (BLI), AHC capture of the bivalent mAb, PD-1 in solution
Description: (§1) In particular, anti-human IgG-Fc (AHC) biosensors were used to capture the test articles and dipped into multiple concentrations of PD-1.

human PD-1-His [3] = target: T2, human PD-1-His; assay: Octet (BLI), AHC biosensors capture the bivalent mAb, dipped into multiple concentrations of PD-1; KDapp per legend
Description: as §1

cynomolgus PD-1-His = target: T1, cynomolgus PD-1-His; assay: Octet (BLI); antibody captured on anti-human Fc (AHC) biosensors and dipped into multiple concentrations of cynomolgus PD-1-His

T2 sequence (Q15116 25-167 limits assumed): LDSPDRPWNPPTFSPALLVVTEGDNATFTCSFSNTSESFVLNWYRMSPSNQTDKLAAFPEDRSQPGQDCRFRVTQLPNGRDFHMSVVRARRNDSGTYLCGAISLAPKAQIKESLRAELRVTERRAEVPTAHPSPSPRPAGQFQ

Binder	Kd (human PD-1-His [1]) [nM]	koff (human PD-1-His [2]) [s⁻¹]	kon (human PD-1-His [2]) [M⁻¹ s⁻¹]	Kd (human PD-1-His [3]) [nM]	Kd (cynomolgus PD-1-His) [nM]	binding result (human PD-1-His [1])
XENP28519 (humanized mAb A, bivalent mAb) (antibody, human IgG1, kappa, V domains shown) VH: QVQLQESGPGLVKPSQTLSLTCTVSGHSITSDYAWNWIRQPPGKKLEWIGYISYSGYTTYNPSLKSRVTISRDTSKNQFSLKLSSVTAADTAVYFCARDLDYGPWFAYWGQGTLVTVSS VL: DIQMTQSPSSLSASVGDRVTITCRASENIHNYLAWYQQKPGKSPKLLVYNVKTLADGVPSRFSGSGSGTDYTLTISSLQPEDFATYYCQHFWSSPWTFGGGTKVEIKR	11.9	–	–	–	–	–
H1.213_L1.1 (XENP32829) (antibody, human IgG1, kappa, V domains shown, VH substitution L110S/V111I/W112F (Xencor #); L98S/V99I/W100F (Kabat); also called mAb C[PD1]_H1.213_L1.1_IgG1_PVA_/S267K) VH: EVQLVESGGGLVQPGGSLRLSCAASGFTFSSFGMHWVRQAPGKGLEWVSYISSGSSIIYYADSVKGRFTISRDNAKNSLYLQMNSLRAEDTAVYYCARGGRSIFSPDYWGQGTLVTVSS VL: DIVMTQSPDSLAVSLGERATINCKSSQSLLHSGNQKNYLTWYQQKPGQPPKLLIYWASTRESGVPDRFTGSGSGTDFTLTISSLQAEDVAVYYCQNDYSYPFTFGSGTKLEIKR	–	0.0029	105000	27.6	–	–
XENP28537 (humanized variant of mAb C, bivalent human IgG1) (antibody, V domains shown, Human IgG1 with E233P/L234V/L235A/G236del/S267K) VH: EVQLVESGGGLVQPGGSLRLSCAASGFTFSSFGMHWVRQAPGKGLEWVSYISSGSSIIYYADSVKGRFTISRDNAKNSLYLQMNSLRAEDTAVYYCARGGRLVWSPDYWGQGTLVTVSS VL: DIVMTQSPLSLPVTPGEPASISCRSSQSLLNSGNQKNYLTWYLQKPGQPPQLLIYWASTRESGVPDRFTGSGSGTDFTLKISRVEAEDVGVYYCQNDYSYPFTFGSGTKLEIKR	–	–	–	–	42	–
XENP28538 (humanized variant of mAb C, bivalent human IgG1) (antibody, V domains shown, Human IgG1 with E233P/L234V/L235A/G236del/S267K) VH: EVQLVESGGGLVKPGGSLRLSCAASGFTFSSFGMHWVRQAPGKGLEWVGYISSGSSIIYYADPVKGRFTISRDNSKNTLYLQMNSLKTEDTAVYYCARGGRLVWSPDYWGQGTLVTVSS VL: DIVMTQSPDSLAVSLGERATINCKSSQSLLNSGNQKNYLTWYQQKPGQPPKLLIYWASTRESGVPDRFTGSGSGTDFTLTISSLQAEDVAVYYCQNDYSYPFTFGSGTKLEIKR	–	–	–	–	–	no binding
H1.216_L1.1 (XENP32832) (antibody, human IgG1, kappa, V domains shown, VH substitution R109S/L110V/V111L/W112F (Xencor #); R97S/L98V/V99L/W100F (Kabat); also called mAb C[PD1]_H1.216_L1.1_IgG1_PVA_/S267K) VH: EVQLVESGGGLVQPGGSLRLSCAASGFTFSSFGMHWVRQAPGKGLEWVSYISSGSSIIYYADSVKGRFTISRDNAKNSLYLQMNSLRAEDTAVYYCARGGSVLFSPDYWGQGTLVTVSS VL: DIVMTQSPDSLAVSLGERATINCKSSQSLLHSGNQKNYLTWYQQKPGQPPKLLIYWASTRESGVPDRFTGSGSGTDFTLTISSLQAEDVAVYYCQNDYSYPFTFGSGTKLEIKR	–	0.00218	193000	11.4	–	–
H1.214_L1.1 (XENP32830) (antibody, human IgG1, kappa, V domains shown, VH substitution R109L/V111I/W112L (Xencor #) but R97L/V99I/W100F in the Kabat column: the two columns disagree; also called mAb C[PD1]_H1.214_L1.1_IgG1_PVA_/S267K) VH: EVQLVESGGGLVQPGGSLRLSCAASGFTFSSFGMHWVRQAPGKGLEWVSYISSGSSIIYYADSVKGRFTISRDNAKNSLYLQMNSLRAEDTAVYYCARGGLLILSPDYWGQGTLVTVSS VL: DIVMTQSPDSLAVSLGERATINCKSSQSLLHSGNQKNYLTWYQQKPGQPPKLLIYWASTRESGVPDRFTGSGSGTDFTLTISSLQAEDVAVYYCQNDYSYPFTFGSGTKLEIKR	–	0.0061	166000	36.7	–	–
H1.219_L1.1 (XENP32835) (antibody, human IgG1, kappa, V domains shown, VH substitution R109S/V111Y/W112L (Xencor #) but R97S/V99Y/W100F in the Kabat column: the two columns disagree; also called mAb C[PD1]_H1.219_L1.1_IgG1_PVA_/S267K) VH: EVQLVESGGGLVQPGGSLRLSCAASGFTFSSFGMHWVRQAPGKGLEWVSYISSGSSIIYYADSVKGRFTISRDNAKNSLYLQMNSLRAEDTAVYYCARGGSLYLSPDYWGQGTLVTVSS VL: DIVMTQSPDSLAVSLGERATINCKSSQSLLHSGNQKNYLTWYQQKPGQPPKLLIYWASTRESGVPDRFTGSGSGTDFTLTISSLQAEDVAVYYCQNDYSYPFTFGSGTKLEIKR	–	0.00489	197000	24.8	–	–
H1.217_L1.1 (XENP32833) (antibody, human IgG1, kappa, V domains shown, VH substitution V111S/W112F (Xencor #); V99S/W100F (Kabat); also called mAb C[PD1]_H1.217_L1.1_IgG1_PVA_/S267K) VH: EVQLVESGGGLVQPGGSLRLSCAASGFTFSSFGMHWVRQAPGKGLEWVSYISSGSSIIYYADSVKGRFTISRDNAKNSLYLQMNSLRAEDTAVYYCARGGRLSFSPDYWGQGTLVTVSS VL: DIVMTQSPDSLAVSLGERATINCKSSQSLLHSGNQKNYLTWYQQKPGQPPKLLIYWASTRESGVPDRFTGSGSGTDFTLTISSLQAEDVAVYYCQNDYSYPFTFGSGTKLEIKR	–	0.023	143000	161	–	–
H1.218_L1.1 (XENP32834) (antibody, human IgG1, kappa, V domains shown, VH substitution L110Q/W112F/S113T (Xencor #); L98Q/W100F/S100aT (Kabat); also called mAb C[PD1]_H1.218_L1.1_IgG1_PVA_/S267K) VH: EVQLVESGGGLVQPGGSLRLSCAASGFTFSSFGMHWVRQAPGKGLEWVSYISSGSSIIYYADSVKGRFTISRDNAKNSLYLQMNSLRAEDTAVYYCARGGRQVFTPDYWGQGTLVTVSS VL: DIVMTQSPDSLAVSLGERATINCKSSQSLLHSGNQKNYLTWYQQKPGQPPKLLIYWASTRESGVPDRFTGSGSGTDFTLTISSLQAEDVAVYYCQNDYSYPFTFGSGTKLEIKR	–	0.0013	66500	19.6	–	–
XENP28536 (mAb C[PD-1]_H1L1, bivalent human IgG1) (antibody, V domains shown, Bivalent human IgG1 with E233P/L234V/L235A/G236del/S267K) VH: EVQLVESGGGLVQPGGSLRLSCAASGFTFSSFGMHWVRQAPGKGLEWVSYISSGSSIIYYADSVKGRFTISRDNAKNSLYLQMNSLRAEDTAVYYCARGGRLVWSPDYWGQGTLVTVSS VL: DIVMTQSPDSLAVSLGERATINCKSSQSLLNSGNQKNYLTWYQQKPGQPPKLLIYWASTRESGVPDRFTGSGSGTDFTLTISSLQAEDVAVYYCQNDYSYPFTFGSGTKLEIK	–	–	–	–	35.8	–
H1.223_L1.1 (XENP32839) (antibody, human IgG1, kappa, V domains shown, VH substitution R109H/L110Q/W112F (Xencor #); R97H/L98Q/W100F (Kabat); also called mAb C[PD1]_H1.223_L1.1_IgG1_PVA_/S267K) VH: EVQLVESGGGLVQPGGSLRLSCAASGFTFSSFGMHWVRQAPGKGLEWVSYISSGSSIIYYADSVKGRFTISRDNAKNSLYLQMNSLRAEDTAVYYCARGGHQVFSPDYWGQGTLVTVSS VL: DIVMTQSPDSLAVSLGERATINCKSSQSLLHSGNQKNYLTWYQQKPGQPPKLLIYWASTRESGVPDRFTGSGSGTDFTLTISSLQAEDVAVYYCQNDYSYPFTFGSGTKLEIKR	–	0.00436	123000	35.4	–	–
H1.222_L1.1 (XENP32838) (antibody, human IgG1, kappa, V domains shown, VH substitution W112L/P114S (Xencor #) but W100F/P100bS in Kabat; also called mAb C[PD1]_H1.222_L1.1_IgG1_PVA_/S267K) VH: EVQLVESGGGLVQPGGSLRLSCAASGFTFSSFGMHWVRQAPGKGLEWVSYISSGSSIIYYADSVKGRFTISRDNAKNSLYLQMNSLRAEDTAVYYCARGGRLVLSSDYWGQGTLVTVSS VL: DIVMTQSPDSLAVSLGERATINCKSSQSLLHSGNQKNYLTWYQQKPGQPPKLLIYWASTRESGVPDRFTGSGSGTDFTLTISSLQAEDVAVYYCQNDYSYPFTFGSGTKLEIKR	–	0.00565	114000	49.4	–	–
H1.220_L1.1 (XENP32836) (antibody, human IgG1, kappa, V domains shown, VH substitution V111Y/W112F (Xencor #); V99Y/W100F (Kabat); also called mAb C[PD1]_H1.220_L1.1_IgG1_PVA_/S267K) VH: EVQLVESGGGLVQPGGSLRLSCAASGFTFSSFGMHWVRQAPGKGLEWVSYISSGSSIIYYADSVKGRFTISRDNAKNSLYLQMNSLRAEDTAVYYCARGGRLYFSPDYWGQGTLVTVSS VL: DIVMTQSPDSLAVSLGERATINCKSSQSLLHSGNQKNYLTWYQQKPGQPPKLLIYWASTRESGVPDRFTGSGSGTDFTLTISSLQAEDVAVYYCQNDYSYPFTFGSGTKLEIKR	–	0.00557	140000	39.9	–	–
XENP28539 (humanized variant of mAb C, bivalent human IgG1) (antibody, V domains shown, Human IgG1 with E233P/L234V/L235A/G236del/S267K) VH: EVQLVESGGGLVKPGGSLRLSCAASGFTFSSFGMHWVRQAPGKGLEWVGYISSGSSIIYYADPVKGRFTISRDNSKNTLYLQMNSLKTEDTAVYYCARGGRLVWSPDYWGQGTLVTVSS VL: DIVMTQSPLSLPVTPGEPASISCRSSQSLLNSGNQKNYLTWYLQKPGQPPQLLIYWASTRESGVPDRFTGSGSGTDFTLKISRVEAEDVGVYYCQNDYSYPFTFGSGTKLEIKR	–	–	–	–	–	no binding
H1.221_L1.1 (XENP32837) (antibody, human IgG1, kappa, V domains shown, VH substitution L110R/W112F (Xencor #); L98R/W100F (Kabat); also called mAb C[PD1]_H1.221_L1.1_IgG1_PVA_/S267K) VH: EVQLVESGGGLVQPGGSLRLSCAASGFTFSSFGMHWVRQAPGKGLEWVSYISSGSSIIYYADSVKGRFTISRDNAKNSLYLQMNSLRAEDTAVYYCARGGRRVFSPDYWGQGTLVTVSS VL: DIVMTQSPDSLAVSLGERATINCKSSQSLLHSGNQKNYLTWYQQKPGQPPKLLIYWASTRESGVPDRFTGSGSGTDFTLTISSLQAEDVAVYYCQNDYSYPFTFGSGTKLEIKR	–	0.00477	136000	35.1	–	–
H1.215_L1.1 (XENP32831) (antibody, human IgG1, kappa, V domains shown, VH substitution G108A/W112F (Xencor #); G96A/W100F (Kabat); also called mAb C[PD1]_H1.215_L1.1_IgG1_PVA_/S267K) VH: EVQLVESGGGLVQPGGSLRLSCAASGFTFSSFGMHWVRQAPGKGLEWVSYISSGSSIIYYADSVKGRFTISRDNAKNSLYLQMNSLRAEDTAVYYCARGARLVFSPDYWGQGTLVTVSS VL: DIVMTQSPDSLAVSLGERATINCKSSQSLLHSGNQKNYLTWYQQKPGQPPKLLIYWASTRESGVPDRFTGSGSGTDFTLTISSLQAEDVAVYYCQNDYSYPFTFGSGTKLEIKR	–	0.00482	107000	44.9	–	–
H1.224_L1.1 (XENP32840) (antibody, human IgG1, kappa, V domains shown, VH substitution L110R/V111L/W112F (Xencor #); L98R/V99L/W100F (Kabat); also called mAb C[PD1]_H1.224_L1.1_IgG1_PVA_/S267K) VH: EVQLVESGGGLVQPGGSLRLSCAASGFTFSSFGMHWVRQAPGKGLEWVSYISSGSSIIYYADSVKGRFTISRDNAKNSLYLQMNSLRAEDTAVYYCARGGRRLFSPDYWGQGTLVTVSS VL: DIVMTQSPDSLAVSLGERATINCKSSQSLLHSGNQKNYLTWYQQKPGQPPKLLIYWASTRESGVPDRFTGSGSGTDFTLTISSLQAEDVAVYYCQNDYSYPFTFGSGTKLEIKR	–	0.00416	59400	70	–	–

Source: patent US20240294593A1 (Genentech, published 2024)
